We go through three molecules from patent US7473541B2, “Identification, cloning, expression, and purification of three novel human calcium-independent phospholipase A2 family members possessing triacylglycerol lipase and acylglycerol transacylase activities” (priority 2004, dated 2009).

Common to all, as to type: biochemical
The nature of data set [1]: Assay for triolein lipase activity of recombinant enzymes. Conditions: for triolein lipase specific activity: peak fractions from Co2+ TALON affinity column. On the procedure:
Assay for Triolein Lipase Activity—Sample fractions were incubated in 85 mM potassium phosphate, pH 7.0 containing 2 mM EDTA and 2 mM DTT for 15 min at 37° C. in the presence of a suspension of 100 microM [9,10-^3H(N)]-triolein (100 microCi/micromol) in 25 microM egg yolk lecithin, and 100 microM sodium taurocholate. In some reactions, BEL was added at the indicated concentrations and incubated with enzyme at room temperature for 3 min prior to the addition of radiolabeled substrate. After extraction of radiolabeled reaction products and remaining substrate into butanol, samples were spotted on TLC plates, overlaid with oleic acid standard, dried, and developed in chloroformlmethanol/NH4OH (65:25:5). The region of the plate corresponding to the oleic acid standard (visualized by iodine staining) was scraped into scintillation vials and quantified by liquid scintillation spectrometry.

Data set [2] is described as follows: Assay for calcium-independent phospholipase A2 activity of recombinant enzymes. Particulars: for calcium-independent PLA2 activity: Sf9 cytosol and membrane fractions, 1-palmitoyl-2-[1-14C]-oleoyl-sn-glycerol-3-phosphocholine, relative to control; for PLA2 hydrolysis rate: affinity purified, 30 min. An excerpt: […] Reactions were terminated by addition of 100 microliters of butanol and extraction of the radiolabeled product and remaining substrate into the butanol layer by vigorous vortexing. Samples were spotted on LK6 Silica Gel 60 Å TLC plates, overlaid with oleic acid standard, dried, and developed in petroleum etherlethyl etherlacetic acid (70:30:1). The region of the plate corresponding to the oleic acid standard (visualized by iodine staining) was scraped into scintillation vials and quantified by liquid scintillation spectrometry.

A short description of data set [3]: Assay for acylglycerol transacylase activity. Conditions: affinity purified. The method, then: Assay for Acylglycerol Transacylase Activity—Highly purified CO^2+-TALON affinity chromatographic fractions containing iPLA2epsilon(His)6 (6xHis tag disclosed as SEQ ID NO: 29), iPLA2zeta(His)6 (6xHis tag disclosed as SEQ ID NO: 29) or iPLA2eta(His)6 (6xHis tag disclosed as SEQ ID NO: 29) (40 microliters) were incubated in 85 mM potassium phosphate, pH 7.0 (200 microliters final volume) for 15 mm at 37° C. in the presence of 10 microM [1-^14-C]-mono-olein (acyl donor), 25 microM acyl acceptor (mono-olein or diolein), 25 microM egg yolk lecithin, and 25 microM sodium taurocholate. After extraction of radiolabeled reaction products and remaining substrate into butanol, samples were spotted on TLC plates, overlaid with trileiddiolein standards, dried, and developed in petroleum etherlethyl etherlacetic acid (75:25:1). The regions of the plate corresponding to either the diolein, triolein, and fatty acid standards (visualized by iodine staining) were scraped into scintillation vials and quantified by liquid scintillation spectrometry.

Setting [4] is: 1-palmitoyl-2-[1-14C]-arachidonyl-sn-glycerol-3-phosphocholine.
[5] abbreviates: 1-palmitoyl-2-[1-14C]-linoleoyl-sn-glycerol-3-phosphocholine.

Entries after “also recorded” stand apart in the source; their conditions may differ.

B1: iPLA2epsilon(His)6: recombinant human calcium-independent phospholipase A2 epsilon (adiponutrin, SEQ ID NO: 1) expressed in Sf9 cells (protein, listed as Homo sapiens)
chain: MYDAERGWSLSFAGCGFLGFYHVGATRCLSEHAPHLLRDARMLFGASAGALHCVGVLSGIPLEQTLQVLSDLVRKARSRNIGIFHPSFNLSKFLRQGLCKCLPANVHQLISGKIGISLTRVSDGENVLVSDFRSKDEVVDALVCSCFIPFYSGLIPPSFRGVRYVDGGVSDNVPFIDAKTTITVSPFYGEYDICPKVKSTNFLHVDITKLSLRLCTGNLYLLSRAFVPPDLKVLGEICLRGYLDAFRFLEEKGICNRPQPGLKSSSEGMDPEVAMPSWANMSLDSSPESAALAVRLEGDELLDHLRLSILPWDESILDTLSPRLATALSEEMKDKGGYMSKICNLLPIRIMSYVMLPCTLPVESAIAIVQRLVTWLPDMPDDVLWLQWVTSQVFTRVLMCLLPASRSQMPVSSQQASPCTPEQDWPCWTPCSPEGCPAETKAEATPRSILRSSLNFFLGNKVPAGAEGLSTFPSFSLEKSLHHHHHH
modifications: C-terminal His6 tag
For B1, the “triolein lipase specific activity” value in data set [1] is given as 8 nmol oleic acid·min^−1·mg^−1 protein. Further, in data set [2], the “calcium-independent PLA2 activity” value is 20-50 pmol·min^−1·mg protein^−1. The PLA2 hydrolysis rate in data set [2] (setting [4]) was 100±4 pmol arachidonic acid·min^31 1·mg protein^−1; in data set [2] (setting [5]) it was 57±3 pmol linoleic acid·min^−1·mg protein^−1.

B2: iPLA2eta(His)6: recombinant human calcium-independent phospholipase A2 eta (GS2, SEQ ID NO: 3) expressed in Sf9 cells (protein, listed as Homo sapiens)
chain: MKHINLSFAACGFLGIYHLGAASALCRHGKKLVKDVKAFAGASAGFTSLVASVLLTAPEKIEECNQFTYKFAEEIRRQSFGAVTPGYDFMARLRSGMESILPPSAHFTELAQNRLHVSITNAKTRENHLVSTFSSREDLIKVLLASSFVPIYAGLKLVEYKGQKWVDFTGGLTNALPILPVGRTVTISPFSGRLDISPQDKGQLDLYVNIAKQDIMLSLANLVRLNQAFTLFPPSKRKMESLYQCGFDDTVKFLLKENWFEHHHHHH
modifications: C-terminal His6 tag
For the molecule B2, in data set [1] (Sf9 fractions, normalised to immunoreactive protein), the “triolein lipase specific activity relative to iPLA2epsilon(His)6 and iPLA2zeta(His)6” value was 5-10 fold. Besides, the “triolein lipase specific activity” value in data set [1] is 52 nmol oleic acid·min^−1·mg^−1 protein. Besides, the “calcium-independent PLA2 activity” value in data set [2] was “did not yield detectable amounts; also recorded: did not display measurable iPLA2 activity”. For the same molecule, the PLA2 hydrolysis rate in data set [2] (setting [4]) was 134±42 pmol arachidonic acid·min^31 1·mg protein^−1; in data set [2] (setting [5]) it was 77±23 pmol linoleic acid·min^−1·mg protein^−1. In addition, the “transacylation specific activity relative to iPLA2epsilon(His)6 and iPLA2zeta(His)6” value in data set [3] is reported as “approximately 10 fold”.

B3: iPLA2zeta(His)6: recombinant human calcium-independent phospholipase A2 zeta (TTS-2.2, SEQ ID NO: 2) expressed in Sf9 cells (protein, listed as Homo sapiens)
chain: MFPREKTWNISFAGCGFLGVYYVGVASCLREHAPFLVANATHIYGASAGALTATALVTGVCLGEAGAKFIEVSKEARKRFLGPLHPSFNLVKIIRSFLLKVLPADSHEHASGRLGISLTRVSDGENVIISHFNSKDELIQANVCSGFIPVYCGLIPPSLQGVRYVDGGISDNLPLYELKNTITVSPFSGESDICPQDSSTNIHELRVTNTSIQFNLRNLYRLSKALFPPEPLVLREMCKQGYRDGLRFLQRNGLLNRPNPLLALPPARPHGPEDKDQAVESAQAEDYSQLPGEDHILEHLPARLNEALLEACVEPTDLLTTLSNMLPVRLATAMMVPYTLPLESALSFTIRLLEWLPDVPEDIRWMKEQTGSICQYLVMRAKRKLGRHLPSRLPEQVELRRVQSLPSVPLSCAAYREALPGWMRNNLSLGDALAKWEECQRQLLLGLFCTNVAFPPEALRMRAPADPAPAPADPASPQHQPAGPAPLLSTPAPEARPVIGALGLHHHHHH
modifications: C-terminal His6 tag
Take B3: in data set [1], the “triolein lipase specific activity” value is given as 9 nmol oleic acid·min^−1·mg^−1 protein. Besides, in data set [2], the “calcium-independent PLA2 activity” value was “did not yield detectable amounts; also recorded: did not display measurable iPLA2 activity”. Also, the PLA2 hydrolysis rate in data set [2] (setting [4]) is reported as 119±6 pmol arachidonic acid·min^31 1·mg protein^−1; in data set [2] (setting [5]) it was 57±19 pmol linoleic acid·min^−1·mg protein^−1.
